Experimental data taken from the DeepSol protein solubility set.

Assay: soluble on expression in E. coli; label from the status in PepcDB or PDB records

Sequence	soluble on expression in E. coli
MGSDKIHHHHHHMFVTELRFECFADTSIEAAEKAINNFLEALRANGQVLGREFAVAFNDGEFRVRLLIPERSSLANRYNSPWVKVALNGLTEAKILAPREKFIGQDINSEASNTHQPSWQLLYTSYVHMCSPLRNGDNLLPIPLYQIPATFNGDHKRMIKWQSEWQACDELQMAAATKAEFAALDEISNTDSDLFRRGWDLRGRIEYLTKIPTYYYLYRVGGESLNAELSRPCPKCGSLEWKLAEPLLDMFQFRCEPCRIVSNLSWDHQ	not soluble
MGSDKIHHHHHHMFYIMPAWENEVSELNRDLLKNLTNVFVGGKKSVKLAVLNFLPNLRYLLHVNGLTNYEYWNIWDAILGIERVDGMPLGPEALDLPQGVRLINAMTSMDAYEGSKLYARIIRSSEGYLSEVQFMNPQNRHTDVYDDRGFKVCTNYYENEEVVRQEWFNECNQLIVRYEPKAKVAVQILGNYSNFEKRQYKTLNELLMEFVNSFFEEHFDPTQDRLIASTNLKIRPLMVEIQNRLPVTYLLDHLGPMDTTTVETLQPQIQGAFKFVVPNYVIFQQIKSSVAEPAQKVLKLGYPYGTENRLGNSNEESKMFIYWHIDESTNDTTCSQFAEKLIDYSLEHENVGLQVAALNDRQANLVFNYLCQALKNKYTFLDLEQDQDLIWKIVFGREDTDAIGKLLMQLKFRLGMNLKHDPETNPQKLADSARFKKINWKKVMEDITETIIRVNSRDNEIYRNLARSRVLVDVGSPYNTRMQFNAISAGIPQIVNVDSPFIINRKNGWIINEKQSLSQGLDFYLQELGNWNKSLVATTKYMEQLTLKRQADWWERRTKYEK	not soluble
MGSDKIHHHHHHMGAGELLQDWRVHALRIEDEVSRVVIGQPQTIRLITVALFARGHVLLEGGVGVGKTTVLRAFARVVGGEFERVEGTIDLMPGDLVYHTYVDAEGRPRIDPGPLLRHGERLTTFFFNEINRARPQVQSLLLRAMAERSVWAFDREYRFPHMTVFADRNKVEKEETFELASAARDRFLFELGMPTPTEPDVRRSLVFDAAFHDVDSLLARLPPAIVQWEQLNQVGAAIQESVQSSETIERYVLDIWQATETPQRFGIALDGVDMDRLILAGASPRGMSALLRAARVVAWLAGRSHLVPEDIHAVLMPALGHRVFFTPIYELRRQELAEALMTQIMNRLAVP	not soluble
MGSDKIHHHHHHMGEHFLLEMVDITKEFPGVKALDRVQLKVRKGSVHALMGENGAGKSTLMKILIGMYKPNEGKIIFDGEEVTFNSINDALDKGISMIHQELSPIPEMTVAENIFLGREPTFGKSGLVDNKKLIEMTRNLLESLEINIDPRKKMGELSIANTQMIEIAKAISFHSKLVIMDEPTSAITEKEVAQLFKMIESLKKKGVGIIYITHKMSELDEIADDISVFRDGKYIGTDTAKNLTRDDLIKMMVGRELNQIFDKPEPKLGEVILSVKSLTKQDYFEDVSFEVRKGEIVGFAGLMGSGRTEVLETIFGVKEAESGEIFVNGQKARIKSPQDAVKNNMGFLTEDRKLTGLFLPLSVRENMITVNIDKYINMGWLNGKRVKKDCEQQKQKLYIKTPSIEQIVENLSGGNQQKVLLARWLLKNPDILFLDEPTRGIDVGAKSEFYNLIFELASQGKAIVVVSSEMAEILGLCDRILVMHEGKVTGELTREEANQEKIMQYATGQAKMAKKLHVHNNFEQTVTANKIEIG	not soluble
MGSDKIHHHHHHMGGRGSGKTRAGAEWVSGMALGLPPFAGKPSGHIALVGETFNDAREVMVDGPSGILSVSRLVRPRYEASRRRLIWDNGAVATLFSSEDPDSLRGPQFDAAWCDELAKWKNPQETWDMLQFGLRLGDNPRQVVTTTPRAVPLLKALLTDRTVSMTHMRTAENAGNLAEGFMQTIARRYAGTRLGRQELDGELVEERPGALWSRDRIEQCFEENPPPLARIVVAVDPPASSGKASDACGIVVAGIDAEGVGHVLADESMTMAKPHQWARRAIALYHTHEADAIVAEVNQGGEMVAAEDPSVPVLKRRASRGKWLRAEPVAALYEQGRVRHAGRFPALEDEMCDFAPEGLSSGRSPDRLDALVWALGELMLGADHKPRIRRFG	not soluble
MGSDKIHHHHHHMGIRVSTISRCIGHLEDEIGVALFLRRPNGVTLTFAGEQFLVRARRAMTEVRHAICEAGIAGTGRNGFVRLGLLSSLAAPFPAMLIKIYCAAYPGVRILYSEGGAADHRAALQHHRLDLAFLPHPEKAEGCDALGLWEERLFAAMAQDDPLTRHDVVTWDDLRERHFIFSEVPPGPELLDYLTERLVGFGFLLKADLLTVYRDTVMRVIANGSDVTVIGEARVSHPIQGVACRPITGESLFFHAVWLPTNDNPAFRRFLSLAKVLSKQCSVCELKEGLAGPSGEDHSVMDETSASLERKSRLLKIVSERCATCLLKKAIAD	not soluble
MGSDKIHHHHHHMGKGFTGAILTVMGVKSHIATTTGKTVINDRMVTIHFHSETLLNTEGEVPGDWLRLWFPHESRPGKLYQRAYTLTNVDADAGTFDLAFVLHEPLGPASAWATRCEAGESLEVMRYPGIPFAIPDPAPRGFLFLGDLTSYPAICSILETLDGEIPATAYLIAHDPLDYTFDFPQGEHITAQWISNEQSFIDHIADTDYTDFYTWIGAESSETRAAKKHLQTHAGMPKTHMNAQGYWNKGRAMGKSN	not soluble
MGSDKIHHHHHHMGKLLAINISKERGTEKREVPQAELVADYGIMGDAHAGKWHRQVSLLSAEKIDAFRARGAQIDNGAFGENLIISGFDFKNLPLGTRFCIGDAILEMTQIGKQCHSHCAIYKRMGECIMPKEGVFAVVIRGGQIHTGDEVKLIPANIYASIKDRPADSRCELLTVTEGAHAGEKALYIDGRIRVASGSAWADEINDNDNSIVMFKQQIGSRPRLIICGGGHVSAALVRMASLLAFDIWVIEDRPLFADNAKRQGADHVICGDYKKTLARLEPQADDYYVCMTRGHRFDMECLTEIFRKPYAYVGMMGSKKRAAIVKKDLEESGFSRENISGLHSPIGLAIGGQTPEEIALSVISEIVKCKNERTGCTQVDNEVLDALIEASDEKYILCTIIKKNGSAPRGVGTQMLVSSDNRIIGTIGGGCAEAEVISQCRRLFRKQEFKCGLMDVSMNTDDAEKEGMVCGGSISVLLEQLG	not soluble
MGSDKIHHHHHHMGNAAASTRAICHRRCSTYPRMNDFQSLSTEESPAPAGTNPAVNPIARIHGEPVTEIPSDLYIPPDALEVFLDTFQGPLDLLLYLIRKHNLDVLDIAMAELTRQYLAYIEMMRANKLELAAEYLLMAAVLIEIKSRMLLPKPVAKGNEDEVDPRAELVRRLLEYEQMKVAGQKLNKLPQAERDFALTNVWIEQKVIERLPEVNADDLRNAWLILMARLNVNRRHNITREELSVREHMTRILRHVQGHHFVEFSDLFNAAAGAAELVVTFLALLELVKERQVEVSQPSAFGMIYVRPISVLTTV	not soluble
MGSDKIHHHHHHMGNRQRILPLGVQAPATLEGYYPCPNAAALHAVLKLVAEPQGLCLYLYGPGGVGKSHLLLGAASALAGWTPYMDCGDVPQLFNRIKDLEGFSSLVAAPLLCLDNIEVWAGQRDKETFLFDLYNERMSNGRPMLLAGRAAPRFLDWALPDWASRASACLQVALRLPDDTERMAILQEMAQRRGLQIGVEAAHYLLRHHARDPRTLDGLLTILDAGSWEHQREVTIPFIRLCLGAEKP	not soluble
MGSDKIHHHHHHMGNTINLSRFYKACNPSYTLNMGVMLDRQYYIDFANVRGCKIVEELQRTISRISPDEPTCQLFTGHIGCGKSTELQRLKTELETAGFHVVYFESSQDLDMADIDVSDILLSVARQVCVSLEAIGIKLKPGYFNNLFKEIGDFLQAPIELSGEAEFSLGIAKITAKTKDSTQLRNQLRQYLEPRTNNILQAINEEILEKAVEQLKRRGQKGLVVIVDNLDRVDMRPVASGRTQPEYLFIDRGEQLRRLKCHVVYTIPLALIFSSEYETLKNRLGGGIAPKVLPMVLVRQRDGSDYEPGMSLLRQLVLARAFPEVASQERQQLITELFEQTETLDRLCRVSGGHIRNLLGLLYSCLQRQDPPFSRDCLEAVIKDYRDDLLLAIDECQWELLFDVMQQQSVKGESDYQSLLRSMYLFEYRDPVGRWFGISPALAETEKVLAWRESK	not soluble
MGSDKIHHHHHHMGNTVAMILAGGQGTRLGVLTERIAKPAVPFGGKYRLIDFTLSNCVNSGIYRVGVLTQYRPHVLSKHIGIGRPWDLDRKDGGVEILPPYVGRHESDWYKGTANAVYQNLEFLEENDAELVLILSGDHVYAMNYNDLIDYHLLKEADGTIACMEVPIEEASRFGIMITDVDGRIVDFEEKPAKPRSNLASLGIYVFNYEFLKKVLIEDENDPNSSHDFGKDVIPRILRENLGSLYAFRFDGYWRDVGTLRSYWEANLELVLPVPPFNLYDPNWRFFTHTEEMPPAYVAPGSKVSTSLVSEGAEVYGNVFNSVIFQGVKIGRGTVVKNSVIMTRTEIGENCYLENVIIAENVKIGSNVRMGVGEDAESKLDPKVYSGLLTVVGMNSVIPDDMVIGKNCVIGIGVRPEDFKSKTLESGDYVIVREE	not soluble
MGSDKIHHHHHHMHASVKFRIAEIINSTMPSAEWRLLKQIGVNEVVGTLPRDPSDWRGDQPDLPWDYAPLSSLKRRLSEYGLTLSAIEDNPPMEKIKYGVKGKEDELENVLRLIENMGRLKIGVWCYNWMAGQGWMRSRISIPDRGGAEVTGFSLSDIEEYPPPKMGKIDAETLWKNLAWFLDNVIPVAEDSGVKIAMHPDDPPLEEIRGVSRIMNNVKAFDKLIEMKRSEYNTITLCQGNFTLMTEDLPSAIRHFVRKKAVSFVHFRDVKGKKDNFIESFIDDGKTDTASCMSAYIEEGFDGIMRTDHTPTLYGDTYKVPGYSILGRLHAIGYIQGLIDGVSMV	not soluble
MGSDKIHHHHHHMHDVLAKGILSSNNGMNIYRGCTHGCIYCDARSLCYGMDHIFEDIEVKTNVVELLEDTLKRKRKKCMIGTGAMSDPYIHLEEKLQNTRRCLEIIDKYGFGLSILTKSNRILRDLDLLKSINNKAKCVVEMTLTTYDEELCKIIEPNVSTTKERFEVLKIMRDNKIPTVVWLSPILPYINDTEENIRGILDYCIEAEVKGIIVFGIGVTLRNGNREYYYKNLDKQFKGLKEKYIRQYGNSYEVVSKNHEKLMKIIKETCNKNNIICDIREVFNYMRTFEEKNNEVQIGFDI	not soluble
MGSDKIHHHHHHMHEDHFDKFVQKNLDRNIPIVTTEEAGKSLKELGFMKRHPLKTWDTLIVERGNTLLRVTAMPGRHGPPIVAELLPEVMGSLLDFGIKNSPRSYRMYISGDTMVFDDIKEIPRRYPDVDLALLHLGGTRLLGLVTVTMDAKEGVKMMQLIVPRKAIPIHYNDYDVFKSPLSDFKKEMERAGLQDKIIYLEHGDTYEFDLEEK	not soluble
MGSDKIHHHHHHMHIADITMFYAPASGGVRTYLEAKRNRLAKLPGVTSSLLVPGAYHRSHGSIHEVPAPPLPFSQGYRFPLKRRGWQRELHRLAPDLIEAGDPYVTAWAALDAGRALDVPVVGFYHSDLPRLIGNRLGNWTRAALDRYVRNLYGHCDRVLAPSRVIADRLQTLGLDNVAVQPLGVDLTTFSPQRRQFAFRQRLGLDDDTRLLIFVGRGSREKNLSVLLDTARHLGKGYHLVLIGPQMPQRVPDNVSVIGRYTATADVADWLASSDILLHAGTQETFGLVALEAMASGIPVVAARAGALAENVPLGCGRLCEPHSAQDMARAVRELCADAPEEQGRRARQHVERHHDWDIVVSSLMHHYRELTGQRVNTESLQHG	not soluble
MGSDKIHHHHHHMHPKSPLTMQQSSVFIDSEVLLDDRKFAEAMLLKKDKAGLSRADMVFVLRNLLRLKYYPVAVKFFYDEAEVEKFKAEHEYLVACNPFTFCHFCAESRQKGDVLFGERRTLGCSNARYLFGWKDYDENEIKSHMKYVKDREQAERFVKTKPRLPEGLLAFATAPLHKAKFEPDLVFIICDVLQSYHLYNDYAAAMDVHPIRPNFMMNSAACGGAVWSYVENTINIVPMCSGSYTAGKTEQGEINVFIPWAHFEKLVVRLLERTASQGGASFPRTGETYPGFDICKLCNFLLFRKPKEDE	not soluble
